Laboratory results taken from article PMC7552397, “Crystal structure of caspase-11 CARD provides insights into caspase-11 activation” (Cell Discovery, 2020).
Substitutions are numbered along the chain they refer to. Names and notes keep the numbering of the source.

What was measured:
[1] = biological target: T1, caspase-11 p20 subunit of the catalytic domain (murine, UniProt P70343 60-266); assay: SEC; analytical gel-filtration column of auto-processed wild-type caspase-11 from E. coli; the fraction then on an SDS gel, bands identified by N-terminal sequencing and mass spectrum; conditions: both partners purified
T1 construct: caspase-11, murine, p20 subunit, residues 60–266; source: E. coli, by auto-processing of MBP-tagged full-length wild-type caspase-11, purified
T1 sequence (looked up): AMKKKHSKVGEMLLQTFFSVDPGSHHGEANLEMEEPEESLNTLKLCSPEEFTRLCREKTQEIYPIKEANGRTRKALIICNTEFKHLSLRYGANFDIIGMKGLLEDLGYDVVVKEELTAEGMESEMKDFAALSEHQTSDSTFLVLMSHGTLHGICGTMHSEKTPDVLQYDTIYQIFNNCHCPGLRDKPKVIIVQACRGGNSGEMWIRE

[2] = biological target: the molecule itself; assay: SEC; gel filtration on Superdex 200, 250 mM NaCl, 10 mM Tris-HCl pH 8.0; MBP-tagged proteins, 1 mg each where told
[3] = biological target: the molecule itself; assay: SEC-MALS; DAWN HELEOS 8+, room temperature, samples at 1 mg/mL in 250 mM NaCl, 10 mM Tris-HCl pH 8.0; ASTRA analysis
[4] = biological target: the molecule itself; assay: AUC; sedimentation velocity, 50,000 r.p.m., 20.0 °C, 250 mM NaCl, 10 mM Tris-HCl pH 8.0; 0.187 and 1.53 mg/mL; c(s) distributions; monomer to homodimer and homotetramer

B1: caspase-11 p10 subunit of the catalytic domain (domain or fragment, murine, UniProt P70343 286-373, looked up)
chain: AVKLSHVEKDFIAFYSTTPHHLSYRDKTGGSYFITRLISCFRKHACSCHLFDIFLKVQQSFEKASIHSQMPTIDRATLTRYFYLFPGN
notes: caspase-11, murine, p10 subunit, residues 286–373; source: E. coli, by auto-processing of MBP-tagged full-length wild-type caspase-11, purified
Question: Does B1 bind [1]?
Answer: Result: binds

B2: MBP-caspase-11 protein carrying only the C254A mutation (C254A-caspase-11) (enzyme, murine, UniProt P70343 1-373, looked up)
chain: MAENKHPDKPLKVLEQLGKEVLTEYLEKLVQSNVLKLKEEDKQKFNNAERSDKRWVFVDAMKKKHSKVGEMLLQTFFSVDPGSHHGEANLEMEEPEESLNTLKLCSPEEFTRLCREKTQEIYPIKEANGRTRKALIICNTEFKHLSLRYGANFDIIGMKGLLEDLGYDVVVKEELTAEGMESEMKDFAALSEHQTSDSTFLVLMSHGTLHGICGTMHSEKTPDVLQYDTIYQIFNNCHCPGLRDKPKVIIVQAARGGNSGEMWIRESSKPQLCRGVDLPRNMEADAVKLSHVEKDFIAFYSTTPHHLSYRDKTGGSYFITRLISCFRKHACSCHLFDIFLKVQQSFEKASIHSQMPTIDRATLTRYFYLFPGN
notes: caspase-11, murine, full-length protein with C254A; also called MBP-caspase-11 C254A; source: E. coli, purified (gel filtration); not shown: MBP, N-terminal, kept; His6, C-terminal, kept
Question: Does B2 bind [2]?
Answer: Result: binds

B3: MBP-tagged caspase-11 CARD, residues 1–101 (WT-CARD^aa1–101) (domain or fragment, murine, UniProt P70343 1-101, looked up)
chain: MAENKHPDKPLKVLEQLGKEVLTEYLEKLVQSNVLKLKEEDKQKFNNAERSDKRWVFVDAMKKKHSKVGEMLLQTFFSVDPGSHHGEANLEMEEPEESLNT
notes: source: E. coli Rosetta and BL21 (DE3), purified (nickel column, Superdex 200 gel filtration); not shown: MBP, N-terminal, kept; His6, C-terminal, kept
Question: Which results are given for B3?
Answer: stoichiometry N [3]: 4; stoichiometry N [4]: 2

B4: MBP-tagged WT-CARD^aa1–101 with the first ten amino acids replaced by a GS repeat sequence (GS repeat mutant) (domain or fragment, murine)
chain: B3 chain with M1G, A2S, E3G, N4S, K5G, H6S, P7G, D8S, K9G, P10S
notes: flexible GS repeat that replaces the first ten amino acids of caspase-11; source: E. coli, purified (nickel column, gel filtration); not shown: MBP, N-terminal, kept; His6, C-terminal, kept
Question: Does B4 bind [2]?
Answer: Result: binds

B5: MBP-tagged caspase-11 CARD, residues 1–101, V13A L14A L17A V21A (VLLV-CARD^aa1–101) (domain or fragment, murine, UniProt P70343 1-101, looked up)
chain: B3 chain with V13A, L14A, L17A, V21A
notes: source: E. coli, purified (nickel column, gel filtration); not shown: MBP, N-terminal, kept; His6, C-terminal, kept
Question: Does B5 bind [2]?
Answer: Result: binds
